These are literature values, as cited in US20020192216A1, “Therapeutic use” (priority 1999, published 2002).

The subject of this data set is all three mammalian Hedgehog proteins. As to conditions: compared with Ptc.

B1: HIP: membrane glycoprotein that binds Hedgehog proteins and attenuates Hedgehog signalling; GenBank AF116865 (protein, UniProt Q7TN16 18-700, looked up)
Hedgehog-interacting protein: FFEGDAKFGERNEGSGARRRRCLNGNPPKRLKRRDRRVMSQLELLSGGEILCGGFYPRVSCCLQSDSPGLGRLENKIFSATNNSECSRLLEEIQCAPCSPHSQSLFYTPERDVLDGDLALPLLCKDYCKEFFYTCRGHIPGLLQTTADEFCFYYARKDAGLCFPDFPRKQVRGPASNYLGQMEDYEKVGGISRKHKHNCLCVQEVMSGLRQPVSAVHSGDGSHRLFILEKEGYVKILTPEGELFKEPYLDIHKLVQSGIKGGDERGLLSLAFHPNYKKNGKLYVSYTTNQERWAIGPHDHILRVVEYTVSRKNPHQVDVRTARVFLEVAELHRKHLGGQLLFGPDGFLYIILGDGMITLDDMEEMDGLSDFTGSVLRLDVDTDMCNVPYSIPRSNPHFNSTNQPPEVFAHGLHDPGRCAVDRHPTDININLTILCSDSNGKNRSSARILQIIKGRDYESEPSLLEFKPFSNGPLVGGFVYRGCQSERLYGSYVFGDRNGNFLTLQQSPVTKQWQEKPLCLGASSSCRGYFSGHILGFGEDELGEVYILSSSKSMTQTHNGKLYKIVDPKRPLMPEECRVTVQPAQPLTSDCSRLCRNGYYTPTGKCCCSPGWEGDFCRIAKCEPACRHGGVCVRPNKCLCKKGYLGPQCEQVDRNVRRVTRAGILDQIIDMTSYLLDLTSYIV
On to B1, for which the “affinity for Hedgehog proteins” value was “comparable to that of Ptc”.
